Experimental data from patent publication US20120165265A1, “Calcium Signaling Modulators Involving STIM and ORAI Proteins” (priority 2009, published 2012).

How the values were obtained:
CAD = target: T1, CAD (Homo sapiens, UniProt Q13586); test: Co-immunoprecipitation of Orai1 fragments with CAD in HEK 293T cells; type: binding; settings: YFP-tagged Orai1 fragment with Flag-myc-CAD in HEK 293T cells
T1 construct: For STIM1 342-448 (CAD); expressed in transfected cells; host or cells: HEK 293T
Protocol: Immunoprecipitation and Immunoblot Analysis. Transfected HEK 293T cells (12-24 h) were washed with PBS and lysed in 50 mM Tris-HCl pH 7.5, 150 mM NaCl, 1% Triton X-100, and protease inhibitors. Lysates were spun at 12,000 rpm for 10 min, and the supernatant was incubated with anti-Flag M2 agarose beads (Sigma), or anti-myc or -HA antibody followed by IgG agarose beads (Pierce). Lysates and immunoprecipitates were subjected to SDS-PAGE, probed with HRP-conjugated secondary antibody and detected by enhanced chemiluminescence (Pierce).
STIM1-CAD BINDS TO THE N- AND C-TERMINI OF ORAI1. To identify regions of Orai1 important for activation by CAD, we characterized the binding of CAD to Orai1 using two approaches. First we expressed fusions of NubG with the N-terminus, the II-III cytoplasmic loop and the C-terminus of Orai1 in yeast together with different CAD-Cub-LV constructs. […] Based on the level of b-gal activity, CAD appears to interact with the Orai1 C-terminus with a higher affinity than with the N-terminus. We next expressed fusions of YFP with the N-terminus, the II-III loop and the C-terminus of Orai1 in HEK 293T cells together with Flag-myc-CAD. […]

Orai1 [1] = target: T2, Orai1 (Homo sapiens, UniProt Q96D31); test: Store-operated Ca2+ entry by STIM1 variants, single cell Ca2+ imaging; type: cell-based; settings: coexpressed with eGFP-Orai1, TG
T2 construct: expressed in transfected cells; host or cells: HEK 293
Protocol: For FIG. 7, cells were loaded as above with 2 μM fura-2/AM for 25 min. Ratiometric Ca2+ imaging was performed with 350 and 380 nm excitation in 2 mM Ca2+ Ringer's solution on an Axiovert 35 inverted microscope using a VideoProbe imaging system as described (Bautista et al., 2002). mCherry-positive cells were identified using a 540±12 nm excitation and a 580LP emission filter (Chroma).
The Role of CAD in Orai1 Binding and Activation by STIM1. A key question is whether CAD is responsible for the clustering and activation of CRAC channels by full-length STIM1 following store depletion. To address this, we measured the ability of mCherry-tagged STIM1 variants containing CAD mutations to co-cluster with eGFP-Orai1 and activate Ca^2+ entry in response to TG (FIG. 7). STIM1-Orai1 colocalization was quantified as the fraction of total STIM1 and Orai1 fluorescence that was recruited to regions of high fluorescence covariance (FIG. 13), while Ca^2+ influx was measured with single cell Ca^2+ imaging. For each set of experiments we measured mCherry and GFP fluorescence to confirm that differences in the activity of the various STIM1 constructs were not due to differences in expression level (FIG. 14).

Orai1 [2] = target: T2, Orai1; test: Puncta formation of STIM1 variants by confocal microscopy in HEK 293 cells; type: cell-based; settings: coexpressed with eGFP-Orai1, TG
Protocol: Confocal Microscopy. 6 h after transfection, HEK 293 cells were plated onto sterilized coverslips coated with poly-D-lysine and maintained in complete DMEM for an additional 12-18 h before imaging in Ringer's solution containing (in mM): 155 NaCl, 4.5 KCl, 2 CaCl2, 1 MgCl2, 10 D-glucose, and 5 Na-Hepes, pH 7.4. To deplete stores, cells were treated with 1 μM TG in Ca2+-free Ringer's (prepared by substituting 2 mM MgCl2 and 1 mM EGTA for CaCl2) for 10 min. eGFP and mCherry were excited simultaneously at 488 and 594 nm, respectively, on a Leica SP2 AOBS inverted confocal microscope equipped with a PL APO 100×/NA 1.4 oil immersion objective. Fluorescence emissions were collected at 615-840 nm (mCherry) and 510-570 nm (eGFP). All experiments were performed at 22-25° C.
Quantitation of STIM1 and Orai1 Recruitment into Puncta. Colocalization of eGFP-Orai1 and mCh-STIM1 variants was analyzed from background-corrected confocal image pairs acquired before and after store depletion. Puncta have two defining characteristics: (1) because they are sites of accumulation, STIM1 and Orai1 fluorescence intensities in puncta are greater than the respective mean intensities measured across the entire cell, and (2) because STIM1 and Orai1 co-localize in puncta, their fluorescence covariance is high. […]

endogenous CRAC channels = test: NFAT-luciferase assay in HEK 293T (NFAT-Luc) cells; type: cell-based; settings: following treatment with TG+PMA
Protocol: NFAT-luciferase Assays. HEK 293T cells were co-transfected with the indicated constructs and an NFAT reporter gene (firefly luciferase gene C-terminal to 4×-NFAT site from the IL-2 gene). Cotransfection with the Renilla luciferase (pRLTK) gene driven by the TK promoter was used to control for cell number and transfection efficiency. After 12-18 h, cells were treated with a control DMSO solution (mock), PMA (1 μM), or PMA plus TG (1 μM) for 8 h. Assays were performed using the Dual Luciferase Reporter assay system (Promega). For each condition, luciferase activity was measured with 4 samples taken from duplicate wells using a 96-well automated luminometer (Turner Biosystems). Results are represented as the ratio of firefly to Renilla luciferase activity.
Identifying a Minimal Cytosolic Region of STIM1 that Opens the CRAC Channel. To identify the CRAC-activating domain of STIM1, we first tested a series of soluble cytosolic STIM1 fragments for their ability to activate an NFAT-dependent luciferase reporter gene (NFAT-luc). A series of constructs were generated by progressive truncation of the full-length cytosolic region of STIM1 (FIG. 2A; STIM1234-685; CT-STIM1) and were transiently expressed in a HEK 293T cell line containing NFAT-luc. […]

T2 sequence (Q96D31 whole entry): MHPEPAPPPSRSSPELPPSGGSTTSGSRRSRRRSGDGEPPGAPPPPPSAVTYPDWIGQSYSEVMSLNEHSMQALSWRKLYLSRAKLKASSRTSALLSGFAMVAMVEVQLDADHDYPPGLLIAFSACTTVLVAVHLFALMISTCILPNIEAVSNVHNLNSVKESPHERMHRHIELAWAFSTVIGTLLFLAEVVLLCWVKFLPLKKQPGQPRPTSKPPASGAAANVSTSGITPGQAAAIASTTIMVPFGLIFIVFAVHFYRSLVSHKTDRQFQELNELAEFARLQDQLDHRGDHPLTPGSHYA
T1 sequence (Q13586 342-448): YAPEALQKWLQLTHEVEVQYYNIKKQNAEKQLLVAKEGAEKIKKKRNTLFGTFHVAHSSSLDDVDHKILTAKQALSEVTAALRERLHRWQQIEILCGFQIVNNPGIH

Row | co-immunoprecipitation with CAD (CAD) | puncta formation with Orai1 after store depletion (Orai1 [2]) | Molecule | Ca2+ entry (SOCE) after store depletion (Orai1 [1]) | NFAT activation by endogenous channels (endogenous CRAC channels)
1 | not | – | Orai11-70: Orai1 fragment aa 1-70 (protein, left off: small tags and cut ends) MHPEPAPPPSRSSPELPPSGGSTTSGSRRSRRRSGDGEPPGAPPPPPSAVTYPDWIGQSYSEVMSLNEHS | – | –
2 | – | failed to form puncta | STIM1-DCAD: WT-STIM1 with the CAD deleted (protein, left off: large carriers, WT-STIM1 with the CAD deleted) LSHSHSEKATGTSSGANSEESTAAEFCRIDKPLCHSEDEKLSFEAVRNIHKLMDDDANGDVDVEESDEFLREDLNYHDPTVKHSTFHGEDKLISVEDLWKAWKSSEVYNWTVDEVVQWLITYVELPQYEETFRKLQLSGHAMPRLAVTNTTMTGTVLKMTDRSHRQKLQLKALDTVLFGPPLLTRHNHLKDFMLVVSIVIGVGGCWFAYIQNRYSKEHMKKMMKDLEGLHRAEQSLHDLQERLHKAQEEHRTVEVEKVHLEKKLRDEINLAKQEAQRLKELREGTENERSRQKYAEEELEQVREALRKAEKELESHSSWSLVAALNIDPSWMGSTRPNPAHFIMTDDVDDMDEEIVSPLSMQSPSLQSSVRQRLTEPQHGLGSQRDLTHSDSESSLHMSDRQRVAPKPPQMSRAADEALNAMTSNGSHRLIEGVHPGSLVEKLPDSPALAKKALLALNHGLDKAHSLMELSPSAPPGGSPHLDSSRSHSPSSPDPDTPSPVGDSRALQASRNTRIPHLAGKKAVAEEDNGSIGEETDSSPGRKKFPLKIFKKPLKK | failed to form puncta, cluster Orai1 or activate Ca^2+ entry | inhibited NFAT activation
